PMC6891087 (2019)

Target: unmodified nucleosome core particle (human | Xenopus laevis, UniProt P04908 1-130; P06899 1-126)
Assay: SPR

B1: CPC_LM containing the Survivin BIR mutant K62/E65/H80A (complex)
chain 1: MAPRKGSSRVAKTNSLRRRKLASFLKDFDREVEIRIKQIESDRQNLLKEVDNLYNIEILRLPKALREMNWLDYFALGGNKQALEEAATADLDITEINKLTAEAIQTPLKSAKTRKVIQVDEMIVEEEEEEENERKNLQTARVKRCPPSKKRTQSIQGKGKGKRSSRANTVTPAVGRLEVSMVKPTPGLTPRFDSRVFKTPGLRTPAAGERIYNISGNGSPLADSKEIFLTVPVGGGESLRLLASDLQRHSIAQLDPEALGNIKKLSNRLAQICSSIRTHK
chain 2: MGAPTLPPAWQPFLKDHRISTFKNWPFLEGCACTPERMAEAGFIHCPTENEPDLAQCFFCFAELAGWEPDDDPIEEHKKASSGCAFLSVKKQFEELTLGEFLKLDRERAKNKIAKETNNKKKEFEETAKKVRRAIEQLAAMD
chain 3: MGTTAPGPIHLLELCDQKLMEFLCNMDNKDLVWLEEIQEEAERMFTREFSKEPELMPK
Kd: 309 nM
